Test results taken from the supplement of paper PMC10126150.
± gives the standard deviation of the averaged measurements.

System: ATP
Experiment: switch fluorescence ratio, 500 uM ATP over buffer (Cy3 cluster intensity, sum of 5 cycles each) (fold (ratio)); higher = stronger signal-on switching upon ATP binding; sequences stand for … in TCGTCGGCAGCGTCAGATGTGTATAAGAGACAGTTTTTTTTTTTTTTTTTTTTTTTTT…TC
Settings: aptamer strand: ATP DNA aptamer (quencher-CACCTGGGGGAGTATTGCGGAGGAAGG + anchor), 100 nM annealed; ATP concentration: 500 uM
Summary of the method: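 Imaging in selection buffer was followed by imaging after 15 min with 500 uM ATP at 22 °C, for Cy3-labelled switching-strand clusters annealed to 100 nM quencher-labelled ATP aptamer on a modified Illumina MiSeq flow-cell. Five of these buffer/ATP cycles ran, separated by NaOH stripping and re-annealing. The fluorescence ratio per cluster is summed target-cycle over summed buffer-cycle Cy3 intensity, averaged per switch-domain sequence; clusters outside 100-1000 RFU were removed.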
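Also: ATP exposure 15 min at 22 °C before imaging.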

Sequence | switch fluorescence ratio
AACTAGAGAC | 0.975 ± 0.01
AACTAGAGGG | 0.98 ± 0.017
AACTATAATG | 0.997 ± 0.044
AACTATGCAG | 1.02 ± 0.017
AACTCGGAAT | 1.03 ± 0.028
AACTCGTGGG | 0.975 ± 0.026
AACTCTAGCA | 1.073 ± 0.0052
AACTCTTAAG | 1.03 ± 0.02
AACTCTTCTT | 1.04 ± 0.035
AACTGAAGTC | 0.976 ± 0.01
AACTGAGATT | 1.02 ± 0.024
AACTGATTTC | 0.963 ± 0.03
AACTGCAACA | 1.22 ± 0.031
AACTGGGGGG | 1 ± 0.045
AACTGTATAT | 1.15 ± 0.019
AACTGTCAGA | 0.9903 ± 0.0036
AACTGTTGTA | 0.986 ± 0.0024
AACTTAGTAT | 1.018 ± 0.01
AACTTATTTT | 1 ± 0.003
AACTTGGCGC | 1.01 ± 0.057
AACTTGGGTG | 1.02 ± 0.035
AACTTTAGGG | 0.997 ± 0.039
AACTTTATGA | 1.02 ± 0.01

Sequence | switch fluorescence ratio
AACTTTGTGC | 1 ± 0.055
AACTTTTACG | 1.074 ± 0.0069
AACTTTTCAT | 1.02 ± 0.02
AACTTTTGCT | 1.03 ± 0.066
AACTTTTTAA | 1.01 ± 0.012
AAGAAAATAC | 1 ± 0.024
AAGAAAGGGG | 0.979 ± 0.034
AAGAAAGGTC | 0.994 ± 0.12
AAGAAATTTG | 0.992 ± 0.015
AAGAACTATG | 1.02 ± 0.034
AAGAACTTGC | 0.982 ± 0.053
AAGAAGGAGG | 1.01 ± 0.029
AAGAAGTGTA | 1.006 ± 0.0083
AAGAATATCA | 1.02 ± 0.016
AAGACGATGT | 0.995 ± 0.013
AAGACGGGGT | 1.01 ± 0.049
AAGACTGTTT | 0.954 ± 0.026
AAGACTTCTT | 0.98673 ± 0.00038
AAGACTTGTG | 0.981 ± 0.019
AAGAGACAGG | 1.05 ± 0.042
AAGAGAGGCA | 1.02 ± 0.023
AAGAGATACG | 1.04 ± 0.059
AAGAGATTTG | 0.981 ± 0.018

Sequence | switch fluorescence ratio
AAGAGCAGGG | 0.975 ± 0.011
AAGAGCCATC | 0.9527 ± 0.009
AAGAGCCGCG | 1.03 ± 0.045
AAGAGCGAAG | 1.01 ± 0.014
AAGAGCGAGG | 0.945 ± 0.036
AAGAGCTAGT | 1 ± 0.013
AAGAGGAGAG | 1.036 ± 0.0073
AAGAGGGCCT | 1.01 ± 0.037
AAGAGGGCTT | 0.994 ± 0.016
AAGAGGGGTG | 1.01 ± 0.025
AAGAGGGTAT | 0.9835 ± 0.0065
AAGAGGTGAA | 0.987 ± 0.013
AAGAGGTGGA | 1.028 ± 0.0098
AAGAGTGTGG | 1.02 ± 0.058
AAGAGTTCCT | 1.03 ± 0.032
AAGAGTTCGT | 0.955 ± 0.023
AAGATAGAAC | 0.9783 ± 0.0068
AAGATCACTT | 0.979 ± 0.041
AAGATCTCGC | 0.994 ± 0.025
AAGATCTTAT | 1.01 ± 0.031
AAGATGCAGC | 1.05 ± 0.12
AAGATGGAGG | 0.973 ± 0.037
AAGATGGGGA | 1.01 ± 0.016

Sequence | switch fluorescence ratio
AAGATTCGCG | 0.9914 ± 0.0014
AAGATTGAGC | 0.937 ± 0.022
AAGATTTAAG | 1.02 ± 0.014
AAGATTTCGG | 1.015 ± 0.0084
AAGATTTGAG | 0.992 ± 0.01
AAGCAGGGGA | 1.05 ± 0.032
AAGCATGGGA | 1.01 ± 0.022
AAGCCCGCAC | 1.879 ± 0.0067
AAGCCGGCTA | 1.03 ± 0.023
AAGCCGTAGG | 0.991 ± 0.044
AAGCCGTGTC | 1.01 ± 0.031
AAGCGGCTCG | 0.996 ± 0.03
AAGCGGGG | 1.006 ± 0.002
AAGCGGGGAA | 1.02 ± 0.03
AAGCGGGGAG | 1.04 ± 0.04
AAGCGGGGGT | 1.02 ± 0.026
AAGCGTCTCA | 0.997 ± 0.011
AAGCGTCTGG | 1.02 ± 0.024
AAGCGTTTTT | 1.018 ± 0.0045
AAGCTAAAAT | 0.996 ± 0.053
AAGCTAATTT | 1.01 ± 0.011
AAGCTCGTGC | 0.973 ± 0.089
AAGCTTATAT | 0.9999 ± 0.0089

Sequence | switch fluorescence ratio
AAGCTTATGC | 1.04 ± 0.085
AAGCTTGTGT | 0.997 ± 0.069
AAGCTTTCGT | 1.03 ± 0.014
AAGGAAGCCG | 1.06 ± 0.044
AAGGACACGG | 1.042 ± 0.01
AAGGACCCCT | 1.06 ± 0.026
AAGGACGCCA | 1.05 ± 0.028
AAGGACGGGG | 0.974 ± 0.011
AAGGACGGTG | 1.0045 ± 0.00079
AAGGAGAAGA | 0.993 ± 0.01
AAGGAGCTTG | 0.9735 ± 0.0038
AAGGAGGGGT | 0.9968 ± 0.0081
AAGGAGGGTG | 1.02 ± 0.019
AAGGAGTAGC | 1.04 ± 0.095
AAGGATCGTT | 1 ± 0.018
AAGGATTAAC | 0.985 ± 0.032
AAGGCACAAG | 1 ± 0.021
AAGGCACCGT | 1.03 ± 0.038
AAGGCAGGGC | 0.972 ± 0.04
AAGGCCTATA | 0.998 ± 0.0088
AAGGCGACGT | 0.994 ± 0.015
AAGGCGGGTA | 1 ± 0.021
AAGGCGGGTG | 1.01 ± 0.015

Sequence | switch fluorescence ratio
AAGGCGTTTT | 1.01 ± 0.018
AAGGCTAATT | 0.979 ± 0.033
AAGGCTGGTG | 1.02 ± 0.015
AAGGCTTGGG | 0.992 ± 0.048
AAGGGAAACA | 1.04 ± 0.072
AAGGGACAGT | 1.03 ± 0.016
AAGGGACGGC | 0.9648 ± 0.0078
AAGGGACTGC | 0.97 ± 0.018
AAGGGAGAAC | 0.986 ± 0.0019
AAGGGAGCAC | 1.02 ± 0.023
AAGGGATCGG | 0.994 ± 0.024
AAGGGCATTG | 0.998 ± 0.015
AAGGGCCCTA | 0.9939 ± 0.0018
AAGGGCCGCG | 1 ± 0.017
AAGGGCGCTG | 1.01 ± 0.048
AAGGGCGGGC | 1.07 ± 0.0085
AAGGGCTTAT | 0.981 ± 0.019
AAGGGCTTGC | 1.01 ± 0.041
AAGGGGACCC | 1.04 ± 0.043
AAGGGGATT | 1.01 ± 0.027
AAGGGGCTTG | 0.986 ± 0.036
AAGGGGGACA | 0.992 ± 0.032
AAGGGGGATT | 1.01 ± 0.044

Sequence | switch fluorescence ratio
AAGGGGGCCA | 0.982 ± 0.074
AAGGGGGGCT | 0.996 ± 0.03
AAGGGGGGGA | 1.01 ± 0.046
AAGGGGGTCC | 1.03 ± 0.036
AAGGGGGTGG | 1.02 ± 0.059
AAGGGGTATT | 1.01 ± 0.027
AAGGGGTGCA | 0.968 ± 0.058
AAGGGGTGTT | 1.02 ± 0.02
AAGGGGTTAT | 1.02 ± 0.05
AAGGGGTTGC | 1.03 ± 0.022
AAGGGGTTGG | 1.01 ± 0.019
AAGGGTAAAT | 0.996 ± 0.033
AAGGGTAACA | 0.991 ± 0.019
AAGGGTCTGG | 0.986 ± 0.024
AAGGGTGCGT | 1.01 ± 0.044
AAGGGTGGAG | 0.996 ± 0.026
AAGGGTGGTA | 0.981 ± 0.016
AAGGGTTCAT | 1.031 ± 0.0099
AAGGGTTGCG | 0.985 ± 0.024
